Test results taken from paper PMC5908791.

Columns and labels:
[1] = target: human SOCS1 (residues 53-211) in complex with Elongins B and C (human) (UniProt O15524); experiment: ITC
[2] = target: human JAK1 kinase domain (human) (UniProt P23458)
Sequence of UniProt P23458 (P23458 869-1153): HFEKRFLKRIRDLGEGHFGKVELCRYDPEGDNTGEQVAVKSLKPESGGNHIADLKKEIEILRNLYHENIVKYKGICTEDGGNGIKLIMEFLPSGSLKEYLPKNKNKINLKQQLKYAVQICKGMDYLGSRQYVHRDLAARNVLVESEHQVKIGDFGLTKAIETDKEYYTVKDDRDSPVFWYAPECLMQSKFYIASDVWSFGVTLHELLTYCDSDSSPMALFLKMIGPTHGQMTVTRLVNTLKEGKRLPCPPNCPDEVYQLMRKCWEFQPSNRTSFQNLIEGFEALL

| Kd [1] [nM] | IC50 of inhibition of the JAK1 kinase domain phosphorylating a STAT5b-derived peptide (in vitro kinase assay) [2] [nM] | Substance |
| --- | --- | --- |
| 2650 |  | IFNαR2 (pY269) |
| 964 |  | IL-2Rβ (pY338) |
| 614 |  | IL-2Rβ (pY355) |
| 1030 |  | IL-2Rβ (pY392) |
| 209 |  | IL-2Rβ (pY510) |
|  | 30 | human SOCS1 (residues 53-211) in complex with Elongins B and C (from UniProt O15524 53-211; Q15370 1-118; Q15369 17-112) |
